This passage reports stoichiometry N results from PMC3747075.

For this assay, the target named is human DNM1L GTPase-GED (GG) fusion protein (human) (UniProt O00429). The experiment in a line: SEC; 60 µM protein incubated 30 min at 37°C with 2 mM GDP or GTP, 20 mM NaF and 2 mM AlCl3 (transition state mimic GDP/AlF4-); 20 mM Tris/HCl pH 8.0, 150 mM NaCl, 2 mM EGTA, 4 mM MgCl2, 1 mM DTT; Superdex S 75 HR 10/300; dimer at 9.5 ml, monomer at 11 ml.

Broadly, the stoichiometry N is a count of units in the complex or per binding partner. “human DNM1L GTPase-GED (GG) fusion protein (from UniProt O00429 1-325) (domain or fragment)” showed a stoichiometry N of 2.
